Columns and labels:
Type in all cases: cell-based, mouse
[1] = tested on: bone marrow-derived macrophages of C57BL/6 and C3H/HeN mice; test: NO (nitrite) production by bone marrow-derived macrophages with wild-type Tlr4 (Griess reaction); conditions: 24 h
[2] = tested on: bone marrow-derived macrophages of C57BL/6 and C3H/HeN mice; test: TNFα production by bone marrow-derived macrophages with wild-type Tlr4 (sandwich ELISA)
[3] = tested on: bone marrow-derived macrophages of C3H/HeJ mice (mutant Toll-like receptor 4); test: NO (nitrite) production by bone marrow-derived macrophages with mutant Tlr4 (Griess reaction)
[4] = tested on: bone marrow-derived macrophages of C3H/HeJ mice (mutant Toll-like receptor 4); test: TNFα production by bone marrow-derived macrophages with mutant Tlr4 (sandwich ELISA)

B1: hsp60: Recombinant human hsp60 obtained from StressGen Biotechnologies (protein)
chain: AKDVKFGADARALMLQGVDLLADAVAVTMGPKGRTVIIEQSWGSPKVTKDGVTVAKSIDLKDKYKNIGAKLVQDVANNTNEEAGDGTTTATVLARSIAKEGFEKISKGANPVEIRRGVMLAVDAVIAELKKQSKPVTTPEEIAQVATISANGDKEIGNIISDAMKKVGRKGVITVKDGKTLNDELEIIEGMKFDRGYISPYFINTSKGQKCEFQDAYVLLSEKKISSIQSIVPALEIANAHRKPLVIIAEDVDGEALSTLVLNRLKVGLQVVAVKAPGFGDNRKNQLKDMAIATGGAVFGEEGLTLNLEDVQPHDLGKVGEVIVTKDDAMLLKGKGDKAQIEKRIQEIIEQLDVTTSEYEKEKLNERLAKLSDGVAVLKVGGTSDVEVNEKKDRVTDALNATRAAVEEGIVLGGGCALLRCIPALDSLTPANEDQKIGIEIIKRTLKIPAMTIAKNAGVEGSLIVEKIMQSSSEVGYDAMAGDFVNMVEKGIIDPTKVVRTALLDAAGVASLLTTAEVVVTEIPKEEKDPGMGAMGGMGGGMGGGMF
[1]
  hsp60 concentration required for eliciting NO: 3 µg/mL
[1]; C3H/HeN macrophages
  nitrite levels on increasing the hsp60 concentration tenfold: about five times higher nitrite levels
[1]; C57BL/6 and C3H/HeN macrophages, LPS 10 ng/ml, hsp60 10 μg/ml
  NO production: same outcome
[2]; C3H/HeN macrophages, 10 μg/ml hsp60
  time of peak levels of secreted TNFα: 6 to 12 h
[2]; C57BL/6 and C3H/HeN macrophages, LPS 10 ng/ml, hsp60 10 μg/ml, 6 h
  TNFα secretion: rapid secretion of large amounts of TNFα
[3]; C3H/HeJ (Tlr4 defective) macrophages, LPS 10 ng/ml, hsp60 10 μg/ml, 24 h
  NO production: complete lack of a nitric oxide response
[3]; C3H/HeJ macrophages, 10 μg/ml hsp60, up to 72 h
  NO production, time course: no indication of NO production
[3]; Tlr4 defective macrophages, 24 h
  NO response on increasing the hsp60 concentration tenfold: completely refractory
[4]; C3H/HeJ macrophages, LPS 10 ng/ml, hsp60 10 μg/ml, oligonucleotides 30 μg/ml, 6 h
  TNFα response: no response
[4]; C3H/HeJ macrophages, even at ten times higher hsp60 levels, 6 h
  TNFα response, dose dependence: no such response
[4]; Tlr4 defective macrophages, 10 μg/ml hsp60, observation period of 72 h
  TNFα production, time course: absent
